Source: patent publication US20210338848A1, “COMPOSITIONS AND METHODS FOR DIAGNOSING AND TREATING MACROPHAGE-RELATED DISORDERS USING CARBOHYDRATE-BASED MACR[…]” (Cardinal Health 414, LLC, priority 2016, published 2021)

Key:
[1] = molecular target: mannose receptor CD206 (Homo sapiens, UniProt P22897); details: when administered to mammals; no other receptors bind or transduce
Source text: CD206 is a C-type […] binding protein found on the surface of macrophages.

[2] = used to stage breast cancer and melanoma; cited from earlier work

Chain of mannose receptor CD206 (P22897 19-1456): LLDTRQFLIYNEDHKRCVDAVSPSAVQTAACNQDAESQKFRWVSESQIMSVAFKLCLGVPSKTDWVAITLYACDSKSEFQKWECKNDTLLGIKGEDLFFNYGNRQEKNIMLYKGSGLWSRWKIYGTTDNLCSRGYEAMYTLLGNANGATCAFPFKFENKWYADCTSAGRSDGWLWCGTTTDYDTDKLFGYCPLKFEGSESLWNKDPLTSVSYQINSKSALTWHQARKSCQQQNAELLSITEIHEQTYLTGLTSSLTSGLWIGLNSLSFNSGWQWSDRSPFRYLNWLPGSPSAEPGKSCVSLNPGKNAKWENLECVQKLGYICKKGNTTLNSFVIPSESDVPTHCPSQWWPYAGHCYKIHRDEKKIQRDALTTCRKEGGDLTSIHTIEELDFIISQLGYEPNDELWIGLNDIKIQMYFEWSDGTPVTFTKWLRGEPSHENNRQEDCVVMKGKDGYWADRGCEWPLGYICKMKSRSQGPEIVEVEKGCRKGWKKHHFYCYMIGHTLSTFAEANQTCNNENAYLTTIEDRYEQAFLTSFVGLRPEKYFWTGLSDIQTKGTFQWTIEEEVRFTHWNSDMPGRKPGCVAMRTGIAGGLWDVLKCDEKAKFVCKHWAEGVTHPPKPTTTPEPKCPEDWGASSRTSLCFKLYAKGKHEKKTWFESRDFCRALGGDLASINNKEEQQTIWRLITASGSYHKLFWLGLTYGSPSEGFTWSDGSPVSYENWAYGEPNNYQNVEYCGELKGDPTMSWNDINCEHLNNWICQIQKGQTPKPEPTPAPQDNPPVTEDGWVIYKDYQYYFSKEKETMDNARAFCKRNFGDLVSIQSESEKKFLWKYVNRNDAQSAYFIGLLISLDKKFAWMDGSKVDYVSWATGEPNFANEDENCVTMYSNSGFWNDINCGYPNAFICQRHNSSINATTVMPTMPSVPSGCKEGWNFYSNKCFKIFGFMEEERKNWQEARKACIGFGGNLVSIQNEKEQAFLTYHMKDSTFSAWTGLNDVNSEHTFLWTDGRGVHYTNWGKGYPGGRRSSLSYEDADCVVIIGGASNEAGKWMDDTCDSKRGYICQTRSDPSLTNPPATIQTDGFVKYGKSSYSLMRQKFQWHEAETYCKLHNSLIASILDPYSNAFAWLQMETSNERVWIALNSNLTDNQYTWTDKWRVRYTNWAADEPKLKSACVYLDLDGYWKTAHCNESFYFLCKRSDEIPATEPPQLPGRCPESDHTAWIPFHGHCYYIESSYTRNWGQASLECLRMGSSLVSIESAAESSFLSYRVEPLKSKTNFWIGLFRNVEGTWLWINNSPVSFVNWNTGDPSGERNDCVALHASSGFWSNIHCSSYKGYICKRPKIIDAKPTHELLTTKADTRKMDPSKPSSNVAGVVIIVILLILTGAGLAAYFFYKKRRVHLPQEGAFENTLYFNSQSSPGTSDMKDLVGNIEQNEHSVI

Substance | receptor binding specificity [1] | clearance from injection site [2] | uptake by distal or second-echelon lymph nodes [2] | uptake by sentinel lymph node(s) [2]
dextran 3-[(2-aminoethyl)thio]propyl 17-carboxy-10,13,16-tris(carboxymethyl)-8-oxo-4-thia-7,10,13,16-tetraazaheptadec-1-yl 3-[[2-[[1-imino-2-(D-mannopyranosylthio) ethyl]amino]ethyl]thio]propyl ether complexes [tilmanocept] | bind exclusively to the mannose receptor CD206 |  |  | 
technetium Tc 99m, dextran 3-[(2-aminoethyl)thio]propyl 17-carboxy-10,13,16-tris(carboxymethyl)-8-oxo-4-thia-7,10,13,16-tetraazaheptadec-1-yl 3-[[2-[[1-imino-2-(D-mannopyranosylthio) ethyl]amino]ethyl]thio]propyl ether complexes [technetium Tc 99m labeled tilmanocept] |  | rapid clearance from an injection site | low uptake by distal or second-echelon lymph nodes | rapid and sustained uptake by the sentinel lymph node(s)
